Data on one molecule can be found in paper doi:10.1101/383430 (bioRxiv, 2018).

In this test the target is T1, FAP45 (flagellar-associated protein 45) (Chlamydomonas (endogenous in axonemes), UniProt A8I9E8 1-501).
T1 sequence (looked up): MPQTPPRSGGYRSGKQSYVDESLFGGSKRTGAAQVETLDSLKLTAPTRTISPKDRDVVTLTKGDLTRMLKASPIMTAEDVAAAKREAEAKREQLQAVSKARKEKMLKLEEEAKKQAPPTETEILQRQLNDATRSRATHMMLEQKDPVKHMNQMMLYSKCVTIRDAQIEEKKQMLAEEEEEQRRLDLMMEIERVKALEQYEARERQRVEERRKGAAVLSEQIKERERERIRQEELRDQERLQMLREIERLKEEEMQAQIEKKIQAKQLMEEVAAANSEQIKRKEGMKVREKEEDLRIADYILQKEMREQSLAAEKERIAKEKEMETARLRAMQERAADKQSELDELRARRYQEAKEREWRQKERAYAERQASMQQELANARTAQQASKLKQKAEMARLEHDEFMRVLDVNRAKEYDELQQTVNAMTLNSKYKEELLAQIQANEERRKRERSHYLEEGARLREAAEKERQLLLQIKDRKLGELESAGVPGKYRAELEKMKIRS
Kind of test: cross-linking.

B1: FAP52 (flagellar-associated protein 52) (natural protein, Chlamydomonas (endogenous in axonemes), UniProt A8ILK1 1-615, looked up)
chain: MAEPLVLNSVIGFGGAIENGLIAHPDGRTIIYPLGSTIVLRDRADPRSQEFLQGHSDKVSCLALSRSGRYLASGQITYMGFTADIIIWDLESKQLIHRMALHKVKVQALDFSCDERFLASLGGQDDNALVLWDVASGNAICGSPCNTNFTNCVKFFNNSPDKLITAGNFNMNVWTYDAGNNKLRPTDATLGTLKRVFKSVVVDANDEYAYCGTTTGDVLQIALERVLFKNTGPAKGNVQMGVTATCEVPTGDILVGGGDGSLQLLRKMPALAGTKVEGAITSIALADMNARGFTFFVGTAMCNIYKPATSRLKEELVQTAHNDKINGMAFPNEYSEVFATCGTGFIRLWHLTTCRELLRIAVPNLECFCIAFTTDGSAILSGWSDGKIRAFGPQSGKIIFTINDAHQKAVTAIASTADSSRILSGGEEGMVRVWRIGRTSQTLEASMKDHKGPVNCIRIKGSGDECVSASSDGSCILWDLHTFKRRTSLFANTFFKSVVYHPDESQLVTAGTDRKVTYWDAYDGNAIRIIDGSDLDEVNALAVDRDGEALVSGGGDKLVKLWGYDEGHCYFVGVAHSGAITAVGVTPDKQRIVSVGTEGGIFIWDYQRPQTLADI
With B1, the “stoichiometry N” value is around 1.

In general, stoichiometry N refers to the number of molecules, sites or subunits per partner or assembly.
